According to paper PMC3790847:

Molecular target: T1, Fur (ferric uptake regulator) (Shewanella piezotolerans WP3) (UniProt B8CQZ2)
T1 sequence: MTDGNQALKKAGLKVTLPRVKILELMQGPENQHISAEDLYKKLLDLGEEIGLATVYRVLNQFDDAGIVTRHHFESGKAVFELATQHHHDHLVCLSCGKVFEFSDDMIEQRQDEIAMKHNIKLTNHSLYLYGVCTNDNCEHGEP
Assay: EMSA
Settings: 40 mM KCl, 12.5 mM Tris pH 7.5, 125 uM MnCl2, 1.25 mM MgCl2, 5% glycerol, 0.5 mM DTT, 0.01% BSA, 50 ug/ml salmon sperm DNA, 20 C, 30 min; ~0.2 pmol probe and …

**Q.** How did the binding turn out when “ATAGAGGGGAGCCATAACGGCGAAGGTTACATGGAACTCACCGGCTACTAAGCCGTAACAACCACTCAAACATAAGCTTTATGAAGTATGTAATTGCATTCAAAAAGCAATAGATAAGAATAATTATCATTTACTAAGCTTATGAATATCTTGGATATTTAATGTAGCGCAAGCTAACATTTCGAGTGGACAAAATTCAAACAAGCTTCTAGTCTTTATTGGTAAATTTGAGAACTAGATCACCCCCTAAAAGTTGATCTTGGTCGAT (double strand) [napD (swp4456) promoter]” was run?
**A.** binds

**Q.** How did the binding turn out when “CAGGCTGTAATTGACCTTTTTACACGCAGCAAATAACTGCTTTTTTTGCTGTTCATCAAGTAAAGAGATGAGGGTTCCCGGCACGTTACATTCCTTGGCTTGATAATAATCAAGAGGTGAAGTTTGCTATTCAAGATATAGTGCAAATGATAATCATTATTAATAAAAGTGCAACATATAAAGGGAGCGATTATGGAAGCGATAAGTCCTGCTTTTCGATGGATAAGCGTGATAGCGA (double strand) [Crp-like regulator (swp3806) promoter]” was run?
**A.** binds

**Q.** Which binding does the source give for “TGACCTTAATCACATAAAGCATCTAAAACACCTGCTAAAAATTACGCTGTTAGTTAGCCTTAGAGGTGGAAATAAAATTCCACACACTAAATAAGGGTAAATGAGATTTGTTCTCAAACTAATTCCCTTTTTAGTGATGATTAAAAAACTATTGCAGGGACAAAAATGATGAAATTTTTCAACTTAAGCGCGACTTCAAAAGCGCTACTTACGGCAGGGGTGCTTTCGTTAGCAGTTTCTGGCTGTAGTGGC (double strand) [omcA (swp3277) promoter]” here?
**A.** binds

**Q.** “TTATTACGTGCAATAAGAAGCTTTAACTTTGCTGAGATAAACAATGAAAGAGGAGTTTCTATCAAACTTTAAATGAATGATACAGCTTGATTTGTTTGTGATCTTTTTGCTTTTGATGGTTACAGGTTTGTTAGTGTTGTGCGCGAGTTCACATTGACAATGTAAATACACGTAAAGAAGTATGAATAAAAACAATTCTCATTTATATTGCAGCCAATTATTAAATGTAGCTTTCATTTTTGGGGTTGGTTATGTCTTTTCAGGCGTCTT (double strand) [TonB receptor (swp5150) promoter]” was tested. Which binding did it give?
**A.** binds
